Reference: patent US5639597A, “Cell-free receptor binding assays, the production and use thereof” (Behringwerke Aktiengesellschaft, priority 1990, dated 1997)

T1: IL-4-biotin (Homo sapiens, UniProt P05112)
T1 sequence (P05112 25-153): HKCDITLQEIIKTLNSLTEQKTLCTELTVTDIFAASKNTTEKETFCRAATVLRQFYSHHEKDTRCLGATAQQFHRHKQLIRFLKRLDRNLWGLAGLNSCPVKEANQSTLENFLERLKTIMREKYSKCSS

B1: IL-7RFc: an Fc fusion of the human IL-7 receptor (protein)
chain: ESGYAQNGDLEDAELDDYSFSCYSQLEVNGSQHSLTCAFEDPDVNITNLEFEICGALVEVKCLNFRKLQEIYFIETKKFLLIGKSNICVKVGEKSLTCKKIDLTTIVKPEAPFDLSVVYREGANDFVVTFNTSHLQKKYVKVLMHDVAYRQEKDENKWTHVNLSSTKLTLLQRKLQPAAMYEIKVRSIPDHYFKGFWSEWSPSYYFRTPEINNSSGEMD
B2: G-CSF: ligand used for competition (specificity control) (protein, UniProt P09919 31-207, looked up)
Granulocyte …: TPLGPASSLPQSFLLKCLEQVRKIQGDGAALQEKLVSECATYKLCHPEELVLLGHSLGIPWAPLSSCPSQALQLAGCLSQLHSGLFLYQGLLQALEGISPELGPTLDTLQLDVADFATTIWQQMEELGMAPALQPTQGAMPAFASAFQRRAGGVLVASHLQSFLEVSYRVLRHLAQP

What was measured:
[1] = biological target: T2, TNFRFc (extra-cellular portion of the 80 kD form of the human TNF receptor fused to Fc of human IgG1) (Homo sapiens, UniProt P20333); assay: Cell-free TNF binding assay, competition of ligands with TNF-alpha-biotin; conditions: 200 ng/ml TNFRFc for coating, 20 ng/ml TNF-alpha-biotin, FIG. 8; for effect on binding of TNF-alpha-biotin to TNFRFc: concentrations used
T2 construct: made in house
Protocol: (§1) The assay plate was washed five times with PBS containing 0.05% Tween 20 and then incubated with 275 μl of PBS containing 5% skim milk powder at room temperature for 60 min and then washed as above. Then a "checkerboard titration" was initially carried out in order to determine a suitable combination of receptor and ligand concentrations for the design of the assay. […] After washing as above, incubation with 100 μl of streptavidin-peroxidase (Amersham; 1:250 in DMEM/FCS) was carried out at room temperature for 30 min and then washed as above. The bound peroxidase was detected by the color produced in 100 μl of tetramethylbenzidine substrate solution (Behringwerke). After incubation at room temperature for 30 min, the extinction at 450 nm was measured.

[2] = biological target: T3, GM-CSFRFc (extracellular domain of the human GM-CSF receptor fused to Fc of human IgG1) (Homo sapiens, UniProt P15509); assay: Cell-free GM-CSF binding assay, competition of ligands with GM-CSF-biotin; conditions: 1000 ng/ml GM-CSFRFc for coating, 150 ng/ml GM-CSF-biotin, concentrations used; FIG. 14
T3 construct: made in house; host or cells: COS cells (transient; supernatants used)
Protocol: as §1, with “ELISA plates (Nunc, type B) were coated overnight at 4° C. with 100 μl of an affinity-purified rabbit serum against the CH2 domain of human IgG (Dakopatts). The concentration was 10 μg/ml in PBS (137 mM NaCl, 2.7 mM KCl, 6.1 mM Na2 HPO4, 3.9 mM KH2 PO4, 0.5 mM MgCl2, 0.1 mM CaCl2, pH 7.0). The assay” for “The assay”
Transient expression of pGM-CSFRFc in COS cells was carried out. To do this, COS cells were transfected with pGM-CSFRFc with the aid of DEAE-dextran (EP-A 0325 262).

TNF-alpha-biotin = assay: soluble TNFRFc competing with plate-bound TNFRFc for TNF-alpha-biotin, ELISA format
TNFRFc (human) = assay: competition with TNF-alpha-biotin (20 ng/ml) for plate-bound TNFRFc (200 ng/ml for coating), ELISA format
[3] = biological target: T4, IL-4RFc (extracellular portion of the human receptor for IL-4 fused to Fc of human IgG1) (Homo sapiens, UniProt P24394); assay: Cell-free IL-4 binding assay, competition of ligands with IL-4-biotin; conditions: 300 ng/ml IL-4-biotin, various concentrations of competitor; FIG. 3
T4 construct: It is composed of the extracellular portion of the human receptor for IL-4
Protocol: as §1, with “ELISA plates (Nunc, type B) were coated overnight at 4° C. with 100 μl of an affinity-purified rabbit serum against the CH2 domain of human IgG (Dakopatts). The concentration was 10 μg/ml in PBS (137 mM NaCl, 2.7 mM KCl, 6.1 mM Na2 HPO4, 3.9 mM KH2 PO4, 0.5 mM MgCl2, 0.1 mM CaCl2, pH 7.0). The assay” for “The assay”

IL-4-biotin = biological target: T1, IL-4-biotin; assay: Detection of soluble IL-4 receptor in the cell-free binding assay (competition for IL-4-biotin); conditions: plate coated with 300 ng/ml IL-4RFc; FIG. 4
Protocol: as §1, with “ELISA plates (Nunc, type B) were coated overnight at 4° C. with 100 μl of an affinity-purified rabbit serum against the CH2 domain of human IgG (Dakopatts). The concentration was 10 μg/ml in PBS (137 mM NaCl, 2.7 mM KCl, 6.1 mM Na2 HPO4, 3.9 mM KH2 PO4, 0.5 mM MgCl2, 0.1 mM CaCl2, pH 7.0). The assay” for “The assay”

Molecule	effect on binding of TNF-alpha-biotin to TNFRFc [1]	inhibition of binding of GM-CSF-biotin to GM-CSFRFc [2]	other results
IL-4: interleukin 4, unlabelled ligand used for competition	no effect	do not inhibit	–
TNFRFc (Fc fusion)	–	–	IC50 (TNF-alpha-biotin): 35 ng/mL
TNF-alpha	–	do not inhibit	inhibition of binding of TNF-alpha-biotin, IC50 [1]: 5 ng/mL
GM-CSF: granulocyte/macrophage colony-stimulating factor, unlabelled ligand	no effect	–	–
TNF-alpha (ligand)	–	–	IC50 (TNFRFc (human)): 5 ng/mL
IL-1-alpha: interleukin ligand used for competition (specificity control)	no effect	do not inhibit	competition with IL-4-biotin for binding to IL-4RFc [3]: no binding activity
B1	–	–	binding activity of soluble receptor/Fc fusion protein in IL-4-biotin competition assay (IL-4-biotin): no binding activity
B2	–	do not inhibit	–
